± gives the uncertainty stated by the source.
Test: abundance fitness (aPCA) (normalised: wild type 0, dead -1); higher = more abundant; growth selection in yeast, the domain comes from the species named
Conditions: Homo sapiens

Q: For “SAFB-like transcription modulator I66F, Q9NWH9”, which abundance fitness is on record?
A: -0.396 ± 0.15

Q: With “BAG family molecular chaperone regulator 3 R45F, O95817” as the substance, how does the abundance fitness read?
A: -0.4 ± 0.087

Q: With “BAG family molecular chaperone regulator 3 V12W, O95817” as the substance, how does the abundance fitness read?
A: -0.571 ± 0.32

Q: Which abundance fitness does the source give for “BAG family molecular chaperone regulator 3 G25L, O95817” here?
A: -0.784 ± 0.19

Q: With “BAG family molecular chaperone regulator 3 A13R, O95817” as the substance, how does the abundance fitness read?
A: -0.316 ± 0.13

Q: With “SAFB-like transcription modulator D64E, Q9NWH9” as the substance, how does the abundance fitness read?
A: -0.038 ± 0.034

Q: Which abundance fitness does the source give for “SAFB-like transcription modulator V44E, Q9NWH9” here?
A: -0.124 ± 0.075

Q: Which abundance fitness does the source give for “SAFB-like transcription modulator N38R, Q9NWH9” here?
A: -0.141 ± 0.044

Q: For “BAG family molecular chaperone regulator 3 V12A, O95817”, which abundance fitness is on record?
A: -0.03 ± 0.12

Q: With “BAG family molecular chaperone regulator 3 W26L, O95817” as the substance, how does the abundance fitness read?
A: -0.583 ± 0.14

Q: With “SAFB-like transcription modulator P63S, Q9NWH9” as the substance, how does the abundance fitness read?
A: -0.17 ± 0.049

Q: For “SAFB-like transcription modulator L68C, Q9NWH9”, which abundance fitness is on record?
A: -0.092 ± 0.097

Q: For “BAG family molecular chaperone regulator 3 G25K, O95817”, which abundance fitness is on record?
A: -0.492 ± 0.23

Q: For “BAG family molecular chaperone regulator 3 P24C, O95817”, which abundance fitness is on record?
A: -0.489 ± 0.29

Q: Which abundance fitness does the source give for “BAG family molecular chaperone regulator 3 S56H, O95817” here?
A: -0.411 ± 0.37

Q: For “SAFB-like transcription modulator V47G, Q9NWH9”, which abundance fitness is on record?
A: -0.28 ± 0.038

Q: Which abundance fitness does the source give for “BAG family molecular chaperone regulator 3 T46G, O95817” here?
A: -0.65 ± 0.075

Q: With “BAG family molecular chaperone regulator 3 D41V, O95817” as the substance, how does the abundance fitness read?
A: -0.851 ± 0.099

Q: For “BAG family molecular chaperone regulator 3 D31V, O95817”, which abundance fitness is on record?
A: -0.433 ± 0.12

Q: For “SAFB-like transcription modulator D24F, Q9NWH9”, which abundance fitness is on record?
A: -0.466 ± 0.033

Q: With “SAFB-like transcription modulator R51N, Q9NWH9” as the substance, how does the abundance fitness read?
A: -0.403 ± 0.037

Q: With “BAG family molecular chaperone regulator 3 W49R, O95817” as the substance, how does the abundance fitness read?
A: -0.226 ± 0.1

Q: With “SAFB-like transcription modulator E33R, Q9NWH9” as the substance, how does the abundance fitness read?
A: -0.961 ± 0.077

Q: Which abundance fitness does the source give for “SAFB-like transcription modulator L52A, Q9NWH9” here?
A: -0.702 ± 0.04

Q: With “BAG family molecular chaperone regulator 3 S56V, O95817” as the substance, how does the abundance fitness read?
A: 0.08 ± 0.1

Q: For “BAG family molecular chaperone regulator 3 V40G, O95817”, which abundance fitness is on record?
A: -0.541 ± 0.087

Q: With “BAG family molecular chaperone regulator 3 G35S, O95817” as the substance, how does the abundance fitness read?
A: 0.442 ± 0.064

Q: Which abundance fitness does the source give for “SAFB-like transcription modulator L39T, Q9NWH9” here?
A: -0.631 ± 0.043

Q: For “BAG family molecular chaperone regulator 3 T48I, O95817”, which abundance fitness is on record?
A: -0.354 ± 0.14

Q: For “SAFB-like transcription modulator D40S, Q9NWH9”, which abundance fitness is on record?
A: -0.148 ± 0.062

Q: Which abundance fitness does the source give for “SAFB-like transcription modulator E57Q, Q9NWH9” here?
A: -0.667 ± 0.25

Q: For “BAG family molecular chaperone regulator 3 D31A, O95817”, which abundance fitness is on record?
A: -0.22 ± 0.12

Q: For “SAFB-like transcription modulator K31I, Q9NWH9”, which abundance fitness is on record?
A: 0.131 ± 0.064

Q: With “BAG family molecular chaperone regulator 3 L22W, O95817” as the substance, how does the abundance fitness read?
A: -0.464 ± 0.083

Q: Which abundance fitness does the source give for “BAG family molecular chaperone regulator 3 P32K, O95817” here?
A: -0.002 ± 0.068

Q: With “BAG family molecular chaperone regulator 3 R19D, O95817” as the substance, how does the abundance fitness read?
A: -0.499 ± 0.31

Q: With “BAG family molecular chaperone regulator 3 P24D, O95817” as the substance, how does the abundance fitness read?
A: -0.597 ± 0.36

Q: With “SAFB-like transcription modulator E59D, Q9NWH9” as the substance, how does the abundance fitness read?
A: -0.225 ± 0.087

Q: With “SAFB-like transcription modulator V47E, Q9NWH9” as the substance, how does the abundance fitness read?
A: 0.022 ± 0.068

Q: With “SAFB-like transcription modulator I22V, Q9NWH9” as the substance, how does the abundance fitness read?
A: -0.132 ± 0.037

Q: For “SAFB-like transcription modulator E33Q, Q9NWH9”, which abundance fitness is on record?
A: -0.111 ± 0.079

Q: Which abundance fitness does the source give for “SAFB-like transcription modulator G19E, Q9NWH9” here?
A: -0.014 ± 0.086

Q: Which abundance fitness does the source give for “BAG family molecular chaperone regulator 3 F38G, O95817” here?
A: -0.503 ± 0.14

Q: Which abundance fitness does the source give for “SAFB-like transcription modulator L34H, Q9NWH9” here?
A: -0.465 ± 0.38

Q: For “SAFB-like transcription modulator R37P, Q9NWH9”, which abundance fitness is on record?
A: -0.658 ± 0.094

Q: For “SAFB-like transcription modulator N38W, Q9NWH9”, which abundance fitness is on record?
A: -0.368 ± 0.037

Q: Which abundance fitness does the source give for “BAG family molecular chaperone regulator 3 D51S, O95817” here?
A: -0.383 ± 0.14

Q: For “BAG family molecular chaperone regulator 3 L22I, O95817”, which abundance fitness is on record?
A: -0.271 ± 0.15

Q: Which abundance fitness does the source give for “BAG family molecular chaperone regulator 3 D31S, O95817” here?
A: -0.67 ± 0.2

Q: With “BAG family molecular chaperone regulator 3 D51H, O95817” as the substance, how does the abundance fitness read?
A: -0.262 ± 0.42

Q: Which abundance fitness does the source give for “SAFB-like transcription modulator I66W, Q9NWH9” here?
A: -0.451 ± 0.18

Q: With “BAG family molecular chaperone regulator 3 G35Q, O95817” as the substance, how does the abundance fitness read?
A: 0.41 ± 0.11

Q: With “SAFB-like transcription modulator K20F, Q9NWH9” as the substance, how does the abundance fitness read?
A: -0.366 ± 0.16

Q: With “SAFB-like transcription modulator L30H, Q9NWH9” as the substance, how does the abundance fitness read?
A: -0.902 ± 0.17

Q: For “BAG family molecular chaperone regulator 3 P21C, O95817”, which abundance fitness is on record?
A: 0.548 ± 0.1

Q: Which abundance fitness does the source give for “BAG family molecular chaperone regulator 3 P55R, O95817” here?
A: -0.306 ± 0.11

Q: For “BAG family molecular chaperone regulator 3 T46Y, O95817”, which abundance fitness is on record?
A: -0.358 ± 0.33

Q: With “BAG family molecular chaperone regulator 3 G25H, O95817” as the substance, how does the abundance fitness read?
A: -0.125 ± 0.065

Q: With “SAFB-like transcription modulator D62C, Q9NWH9” as the substance, how does the abundance fitness read?
A: -0.198 ± 0.045

Q: Which abundance fitness does the source give for “SAFB-like transcription modulator E58N, Q9NWH9” here?
A: -0.068 ± 0.077

Q: For “BAG family molecular chaperone regulator 3 L22V, O95817”, which abundance fitness is on record?
A: 0.078 ± 0.068

Q: Which abundance fitness does the source give for “BAG family molecular chaperone regulator 3 V40I, O95817” here?
A: -0.084 ± 0.069

Q: For “BAG family molecular chaperone regulator 3 Q11G, O95817”, which abundance fitness is on record?
A: 0.771 ± 0.065

Q: With “SAFB-like transcription modulator D40A, Q9NWH9” as the substance, how does the abundance fitness read?
A: -0.2 ± 0.046

Q: With “SAFB-like transcription modulator G60V, Q9NWH9” as the substance, how does the abundance fitness read?
A: -0.515 ± 0.04

Q: For “SAFB-like transcription modulator E57I, Q9NWH9”, which abundance fitness is on record?
A: 0.048 ± 0.39

Q: With “BAG family molecular chaperone regulator 3 S14Y, O95817” as the substance, how does the abundance fitness read?
A: -0.113 ± 0.15

Q: For “BAG family molecular chaperone regulator 3 G35R, O95817”, which abundance fitness is on record?
A: 0.366 ± 0.078

Q: Which abundance fitness does the source give for “BAG family molecular chaperone regulator 3 F39R, O95817” here?
A: -0.618 ± 0.068

Q: With “BAG family molecular chaperone regulator 3 F39S, O95817” as the substance, how does the abundance fitness read?
A: -0.729 ± 0.19

Q: With “BAG family molecular chaperone regulator 3 A13V, O95817” as the substance, how does the abundance fitness read?
A: 0.328 ± 0.087

Q: With “SAFB-like transcription modulator V47A, Q9NWH9” as the substance, how does the abundance fitness read?
A: -0.025 ± 0.058

Q: With “SAFB-like transcription modulator G19C, Q9NWH9” as the substance, how does the abundance fitness read?
A: -0.391 ± 0.19

Q: With “SAFB-like transcription modulator D64N, Q9NWH9” as the substance, how does the abundance fitness read?
A: 0.035 ± 0.037

Q: For “SAFB-like transcription modulator K35F, Q9NWH9”, which abundance fitness is on record?
A: -0.267 ± 0.17

Q: With “SAFB-like transcription modulator L52Y, Q9NWH9” as the substance, how does the abundance fitness read?
A: -0.651 ± 0.17

Q: With “SAFB-like transcription modulator L52C, Q9NWH9” as the substance, how does the abundance fitness read?
A: -0.827 ± 0.12

Q: For “SAFB-like transcription modulator E67F, Q9NWH9”, which abundance fitness is on record?
A: -0.041 ± 0.078

Q: Which abundance fitness does the source give for “SAFB-like transcription modulator K20H, Q9NWH9” here?
A: 0.005 ± 0.12

Q: For “SAFB-like transcription modulator I56F, Q9NWH9”, which abundance fitness is on record?
A: -0.898 ± 0.21

Q: For “SAFB-like transcription modulator E58L, Q9NWH9”, which abundance fitness is on record?
A: -0.036 ± 0.036

Q: With “SAFB-like transcription modulator L48G, Q9NWH9” as the substance, how does the abundance fitness read?
A: -0.472 ± 0.054

Q: For “SAFB-like transcription modulator L48N, Q9NWH9”, which abundance fitness is on record?
A: -0.489 ± 0.043

Q: With “SAFB-like transcription modulator R26V, Q9NWH9” as the substance, how does the abundance fitness read?
A: -0.365 ± 0.085

Q: With “SAFB-like transcription modulator I22A, Q9NWH9” as the substance, how does the abundance fitness read?
A: -0.65 ± 0.078

Q: Which abundance fitness does the source give for “SAFB-like transcription modulator E58T, Q9NWH9” here?
A: -0.043 ± 0.067

Q: With “BAG family molecular chaperone regulator 3 D20F, O95817” as the substance, how does the abundance fitness read?
A: -0.09 ± 0.32

Q: With “BAG family molecular chaperone regulator 3 G17L, O95817” as the substance, how does the abundance fitness read?
A: 0.282 ± 0.087

Q: Which abundance fitness does the source give for “SAFB-like transcription modulator L39D, Q9NWH9” here?
A: -0.755 ± 0.075

Q: For “BAG family molecular chaperone regulator 3 W36K, O95817”, which abundance fitness is on record?
A: 1.09 ± 0.12

Q: Which abundance fitness does the source give for “SAFB-like transcription modulator I66P, Q9NWH9” here?
A: -0.274 ± 0.1

Q: For “BAG family molecular chaperone regulator 3 Q11K, O95817”, which abundance fitness is on record?
A: 1.01 ± 0.19

Q: For “SAFB-like transcription modulator L34F, Q9NWH9”, which abundance fitness is on record?
A: -0.945 ± 0.2

Q: With “SAFB-like transcription modulator K45Q, Q9NWH9” as the substance, how does the abundance fitness read?
A: -0.099 ± 0.084

Q: For “BAG family molecular chaperone regulator 3 E27G, O95817”, which abundance fitness is on record?
A: -0.54 ± 0.14

Q: Which abundance fitness does the source give for “SAFB-like transcription modulator E58Y, Q9NWH9” here?
A: -0.342 ± 0.076

Q: Which abundance fitness does the source give for “SAFB-like transcription modulator G60F, Q9NWH9” here?
A: -0.584 ± 0.06

— the Human Domainome abundance scans (Beltran et al. 2025)
